Data taken from PMC3032881.
Like-named read-outs stand apart in the source and are kept apart here.

Key:
[1] = target: soluble recombinant HLA A*0201 (α chain tagged with a biotinylation sequence, with β2m); experiment: SPR; real time pMHC stability assay, BIAcore 3000, CM5 chip; ~500 RU of biotinylated refolded pMHCI immobilised on streptavidin; flow 10 μl/min for 15,000 s; Langmuir dissociation analysis converted to half-life
[2] = target: HLA A*0201 on the surface of TAP deficient T2 cells (human (endogenous in T2 cells)); experiment: flow cytometry on cells; T2-binding assay: TAP deficient T2 cells with peptide at 100, 50, 10 and 1 μM in AIM-V, 10 min 37 °C, room temperature overnight, 2 h 37 °C; surface HLA A*0201 stained with anti-human HLA A*0201:RPE; MFI fitted (log(agonist) vs. response) to logEC50
[3] = target: soluble recombinant HLA A*0201 (α chain tagged with a biotinylation sequence, with β2m); experiment: SPR; real time pMHC stability assay, BIAcore 3000, CM5 chip; ~500 RU of biotinylated refolded pMHCI immobilised on streptavidin; flow 10 μl/min for 15,000 s; Langmuir dissociation analysis converted to half-life; remark: listed apart in the source
[4] = target: HLA A*0201 on the surface of TAP deficient T2 cells (human (endogenous in T2 cells)); experiment: flow cytometry on cells; T2-binding assay: TAP deficient T2 cells with peptide at 100, 50, 10 and 1 μM in AIM-V, 10 min 37 °C, room temperature overnight, 2 h 37 °C; surface HLA A*0201 stained with anti-human HLA A*0201:RPE; MFI fitted (log(agonist) vs. response) to logEC50; remark: listed apart in the source

SLLMWITQL [NY-ESO-1 157-165 heteroclitic peptide …]
half-life [1]: 10.1 h
koff [1]: 1.9e-05 s⁻¹
LogEC50 [2]: -4.37 M

YLEPGPVTA (modifications not checked) [gp100 280-288 peptide YLEPGPVA]
half-life [3]: 5.8 h
LogEC50 [4]: -3.59 M
